“And” between values parts separate entries of the source, which are not always exact repeats. Equal values may be shown once.

Drawing on US20250026844A1, this text covers Maximum mean fluorescence intensity, Cell mean fluorescence density and OD450 nm for one substance.

The target of assay [1] is human BCMA on cells (human) (UniProt Q02223). The assay is described as follows: FACS, H929 cells. On the technique in general: In flow cytometry, cells or beads pass a laser one at a time.
Assay [2] has the same target. In words: FACS, U266 cells.
Assay [3] shares this target. In words: FACS, H929 cells. This is another data set of the same source.
Assay [4] shares this target. In words: FACS, U266 cells. The source holds these as a separate data set.
The target is the same in assay [5]. The assay is described as follows: FACS, H929 cells. This is another data set of the same source.
Assay [6] has the same target. In words: FACS, U266 cells. The source holds these as a separate data set.
Assay [7] has the same target. The assay is described as follows: FACS, H929 cells. The source holds these as a separate data set.
Assay [8] shares this target. In words: FACS, U266 cells. The source holds these as a separate data set.
The target is the same in assay [9]. The assay is described as follows: FACS, Flp-in CHO-human BCMA cells.
Assay [10] deals with monkey BCMA on Flp-inCHO cells (monkey). In words: FACS, Flp-in CHO-monkey BCMA cells.
Assay [11] has as its target human BCMA-His protein (human) (UniProt Q02223). The assay is described as follows: ELISA, coated human BCMA-His, antibody 1 nM.
For assay [12] the target is unchanged. In words: ELISA, coated human BCMA-His, antibody 10 nM. Background: In an ELISA, binding on a coated surface is turned into a signal by an enzyme label.
Assay [13] concerns the target monkey BCMA-His protein (monkey). The assay is described as follows: ELISA, coated monkey BCMA-His, antibody 1 nM.
Assay [14] deals with human BCMA-His protein (human) (UniProt Q02223). The assay is described as follows: ELISA, coated human BCMA-His, antibody 0.1 nM.
The target is the same in assay [15]. The assay is described as follows: ELISA, coated human BCMA-His, antibody 100 nM.
Assay [16] has as its target monkey BCMA-His protein (monkey). In words: ELISA, coated monkey BCMA-His, antibody 10 nM.
The target in assay [17] is human BCMA-His protein (human) (UniProt Q02223). In words: ELISA, coated human BCMA-His, antibody 0.01 nM.
Assay [18] deals with monkey BCMA-His protein (monkey). In words: ELISA, coated monkey BCMA-His, antibody 0.1 nM.
Assay [19] has the same target. In words: ELISA, coated monkey BCMA-His, antibody 100 nM.
Assay [20] deals with human BCMA-His protein (human) (UniProt Q02223). In words: ELISA, coated human BCMA-His, antibody 0.001 nM.
Assay [21] deals with monkey BCMA-His protein (monkey). In words: ELISA, coated monkey BCMA-His, antibody 0.01 nM.
Assay [22] addresses human BCMA-His protein (human) (UniProt Q02223). In words: ELISA, coated human BCMA-His, antibody 0.0001 nM.
Assay [23] addresses monkey BCMA-His protein (monkey). The assay is described as follows: ELISA, coated monkey BCMA-His, antibody 0.001 nM.
Assay [24] shares this target. The assay is described as follows: ELISA, coated monkey BCMA-His, antibody 0.0001 nM.

Chain of human BCMA on cells (human) (Q02223 whole entry): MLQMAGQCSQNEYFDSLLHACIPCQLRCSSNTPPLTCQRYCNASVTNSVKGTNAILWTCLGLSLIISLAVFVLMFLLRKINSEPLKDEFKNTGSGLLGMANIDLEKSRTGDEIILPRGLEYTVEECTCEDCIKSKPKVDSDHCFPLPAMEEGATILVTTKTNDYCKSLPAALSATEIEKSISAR
Chain of human BCMA-His protein (human) (Q02223 1-54 limits assumed): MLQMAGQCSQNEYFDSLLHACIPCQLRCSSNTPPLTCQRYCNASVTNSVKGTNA
Chain of monkey BCMA-His protein (monkey) (A0A2K5 entry or part of it limits assumed): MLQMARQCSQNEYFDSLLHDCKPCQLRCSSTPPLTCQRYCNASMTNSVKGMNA

Regarding “anti-hel-hlgG1 (negative control antibody against hen egg lysozyme)”, the Maximum mean fluorescence intensity was 110 MFI in [1]; 103 MFI in assay [2]; 99 MFI and 91 MFI and 167 MFI in [3]; 108 MFI and 111 MFI and 119 MFI in [4]; 121 MFI in assay [5]; 124 MFI in assay [6]. Besides, the Maximum mean fluorescence intensity in [7] turned out to be 93 MFI; in assay [8], 149 MFI. The figures for the Cell mean fluorescence density in assay [9] and in assay [10] were 54.6 MFI and 49 MFI, respectively. Further, the OD450 nm in assay [11] was determined as 0.05 OD450 nm; in [12] it was 0.07 OD450 nm; in assay [13] it was 0.05 OD450 nm; in assay [14], 0.05 OD450 nm; in assay [15], 0.12 OD450 nm; in [16], 0.06 OD450 nm. The OD450 nm in [17] amounted to 0.05 OD450 nm; in assay [18], 0.05 OD450 nm; in assay [19] it was 0.1 OD450 nm; in assay [20] it was 0.05 OD450 nm; in assay [21] it was 0.04 OD450 nm; in assay [22] it was 0.05 OD450 nm. For the same substance, the OD450 nm in assay [23] and in assay [24] was 0.05 OD450 nm each time.
